1 molecule from PMC4312765 can be followed below.

The target in this experiment is Dpy30 C-terminal domain (human), Q9C005. The experiment in a line: ITC; Dpy30FL or Dpy30C with synthetic DBM peptides; conditions not shown.
Chain of Dpy30 C-terminal domain (human), Q9C005 (Q9C005 45-99): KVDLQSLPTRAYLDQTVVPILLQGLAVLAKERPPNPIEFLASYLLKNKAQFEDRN

With DTLYKEQIAEDIVWDIIDELEQIALQQ (modifications not checked) [Bre2 Dpy30-binding motif peptide], the stoichiometry N is 0.5.
